Our source for the percent inhibition values is patent publication US6277558.

Ends that are not written are not given here.

The assay deals with GP sera of Examples 8 to 11 (anti sera from two GP patients). The assay is described as follows: inhibition ELISA: peptide preincubated with GP antibodies for 12 hours, then plates coated with α3 NC1 bovine monomer. On the technique in general: In an ELISA, binding on a coated surface is turned into a signal by an enzyme label.

In turn, ISRCQVCMKKRH (also: the two cysteines blocked, group not given here) [α3 carboxy terminal peptide (12 Mer synthetic peptide of human α3(IV) NC1)] showed a percent inhibition at saturation of 60%.
